Test results from patent US20240398911A1.

Legend:
Test in all cases: BLI, sACE22-IgG1 immobilized, RBD-8h analyte
[1] = biological target: 8his-tagged RBD of the S protein of bat coronavirus isolate LYRa11 (bat coronavirus LYRa11)
[2] = biological target: 8his-tagged RBD of the S protein of bat coronavirus isolate Rs7327 (bat coronavirus Rs7327)
[3] = biological target: 8his-tagged RBD of the S protein of bat coronavirus isolate Rs4231 (bat coronavirus Rs4231)
[4] = biological target: 8his-tagged RBD of the S protein of bat coronavirus isolate RsSHC014 (bat coronavirus RsSHC014)
[5] = biological target: 8his-tagged RBD of the S protein of bat coronavirus isolate Rs4084 (bat coronavirus Rs4084)

sACE22.v2.4 fused to human IgG1 Fc (Fc fusion)
Kd [1]: 1.8 nM
koff [1]: 0.0025 s⁻¹
kon [1]: 1.4e+06 M⁻¹ s⁻¹
Kd [2]: 1.9 nM
koff [2]: 0.0018 s⁻¹
kon [2]: 980000 M⁻¹ s⁻¹
Kd [3]: 3.5 nM
koff [3]: 0.0016 s⁻¹
kon [3]: 450000 M⁻¹ s⁻¹
Kd [4]: 1.3 nM
koff [4]: 0.002 s⁻¹
kon [4]: 1.6e+06 M⁻¹ s⁻¹
Kd [5]: 3.1 nM
koff [5]: 0.0015 s⁻¹
kon [5]: 480000 M⁻¹ s⁻¹
